Measurements published in patent publication US20240092890A1 (JUNTENDO EDUCATIONAL FOUNDATION, published 2024).
Where a chain is given by its changes, count along the chain named.

T1: Ins 5 type mutant CALR protein on UT-7/TPO CALR Ins 5 cells (UniProt P27797 18-417)
T1 sequence (looked up): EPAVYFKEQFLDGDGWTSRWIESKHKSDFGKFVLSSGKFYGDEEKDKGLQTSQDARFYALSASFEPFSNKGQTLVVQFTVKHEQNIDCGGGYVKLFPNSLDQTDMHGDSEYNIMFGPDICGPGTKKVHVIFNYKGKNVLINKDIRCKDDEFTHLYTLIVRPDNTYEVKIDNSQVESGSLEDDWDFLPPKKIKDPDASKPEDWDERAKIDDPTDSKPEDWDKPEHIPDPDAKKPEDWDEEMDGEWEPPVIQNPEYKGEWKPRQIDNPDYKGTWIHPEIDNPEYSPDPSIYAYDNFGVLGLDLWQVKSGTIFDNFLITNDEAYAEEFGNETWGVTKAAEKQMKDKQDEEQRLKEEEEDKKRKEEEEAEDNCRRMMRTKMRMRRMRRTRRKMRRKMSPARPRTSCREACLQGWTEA

T2: protein having an Fc region and a His-tag added to the N-terminus of SEQ ID NO: 1
T2 construct: also called mutant CALR protein (antigen of the BLItz measurement); not shown: Fc region and His-tag at the N-terminus
T2 chain: RRMMRTKMRMRRM

B1: Antibody 76 (bispecific antibody)
chain 1: not shown
chain 2: DIQMTQSPSFVSASVGDRVTITCLASEDIYSYLAWYQQKPGKAPKLLIFAANRLQSGVPSRFSGGGSGTGFTLTISSLQPEDFATYFCLQGSKFPYTFGQGTKLEIKRTVAAPSVFIFPPSDEQLKSGTASVVCLLNNFYPREAKVQWKVDNALQSGNSQESVTEQDSKDSTYSLSSTLTLSKADYEKHKVYACEVTHQGLSSPVTKSFNRGEC
B2: Antibody 82 (bispecific antibody)
chain 1: not shown
chain 2: B1 chain 2 with F10S, V11L, G65S, G70D, F87Y, Q100P, L104V, E105D
B3: Antibody 80 (bispecific antibody)
chain 1: not shown
chain 2: B1 chain 2 with F10S, V11L, S56D, G65S, G70D, F87Y, Q100P, L104V, E105D
B4: Antibody 78 (bispecific antibody)
chain 1: not shown
chain 2: B1 chain 2
B5: Antibody 77 (bispecific antibody)
chain 1: not shown
chain 2: B1 chain 2
B6: Antibody 83 (bispecific antibody)
chain 1: not shown
chain 2: B1 chain 2 with F10S, V11L, G65S, G70D, F87Y, Q100P, L104V, E105D
B7: Antibody 84 (bispecific antibody)
chain 1: not shown
chain 2: B1 chain 2 with F10S, V11L, G65S, G70D, F87Y, Q100P, L104V, E105D
B8: Antibody 85 (bispecific antibody)
chain 1: not shown
chain 2: B1 chain 2 with F10S, V11L, G65S, G70D, F87Y, Q100P, L104V, E105D
B9: Antibody 25 (bispecific antibody)
heavy: QVQLQQSGAELVKPGSSVKISCKASGYTFTRNFIHWIKQQPGNGLEWIGWIFPGDGDTEYNQKFNGKATLTADKSSSTAYMQLSSLTSEDSAVYFCARGNYNYEYFDYWGQGVMVTVSSASTKGPSVFPLAPSSKSTSGGTAALGCLVKDYFPEPVTVSWNSGALTSGVHTFPAVLQSSGLYSLSSVVTVPSSSLGTQTYICNVNHKPSNTKVDKRVEPKSCAAAGGGQPREPQVYTLPPSREEMTKNQVSLTCLVKGFYPSDIAVEWESNGQPENNYKTTPPVLDSDGSFFLYSKLTVDKSRWQQGNVFSCSVMHEALHNHYTQKSLSLSPGK
light: QVQLVQSGGGVVQPGRSLRLSCKASGYTFTRYTMHWVRQAPGKGLEWIGYINPSRGYTNYNQKVKDRFTISRDNSKNTAFLQMDSLRPEDTGVYFCARYYDDHYSLDYWGQGTPVTVSSGGGGSGGGGSGGGGSDIQMTQSPSSLSASVGDRVTITCSASSSVSYMNWYQQTPGKAPKRWIYDTSKLASGVPSRFSGSGSGTDYTFTISSLQPEDIATYYCQQWSSNPFTFGQGTKLQITRGGGGSDIQMTQSPASLSASLGETVSIECLASEDIYSYLAWYQQKPGKSPQLLIFAANRLQDGVPSRFSGSGSGTQFSLKISGMQPEDEGDYFCLQGSKFPYTFGPGTKLELNRTVAAPSVFIFPPSDEQLKSGTASVVCLLNNFYPREAKVQWKVDNALQSGNSQESVTEQDSKDSTYSLSSTLTLSKADYEKHKVYACEVTHQGLSSPVTKSFNRGEC
B10: Antibody 11 (bispecific antibody)
chain: QVQLVQSGGGVVQPGRSLRLSCKASGYTFTRYTMHWVRQAPGKGLEWIGYINPSRGYTNYNQKVKDRFTISRDNSKNTAFLQMDSLRPEDTGVYFCARYYDDHYSLDYWGQGTPVTVSSGGGGSGGGGSGGGGSDIQMTQSPSSLSASVGDRVTITCSASSSVSYMNWYQQTPGKAPKRWIYDTSKLASGVPSRFSGSGSGTDYTFTISSLQPEDIATYYCQQWSSNPFTFGQGTKLQITRGGGGSQVQLQQSGAELVKPGSSVKISCKASGYTFTRNFIHWIKQQPGNGLEWIGWIFPGDGDTEYNQKFNGKATLTADKSSSTAYMQLSSLTSEDSAVYFCARGNYNYEYFDYWGQGVMVTVSSGGGGSGGGGSGGGGSDIQMTQSPASLSASLGETVSIECLASEDIYSYLAWYQQKPGKSPQLLIFAANRLQDGVPSRFSGSGSGTQFSLKISGMQPEDEGDYFCLQGSKFPYTFGPGTKLELNHHHHHH

biological target: T1, Ins 5 type mutant CALR protein on …; assay: cell-based or functional assay

Binder | EC50 of cytotoxic activity (pM)
B1 | 300
B2 | 22
B3 | 28
B4 | 63
B5 | 129
B6 | 110
B7 | 277
B8 | 389

Biological target: T2, protein having an Fc region and a …
Assay: BLItz biolayer interferometry, Fc/His-SEQ ID NO: 1 protein on the biosensor
Protocol: As another method, measurements were performed using the molecular interaction analysis system BLItz (ForteBio), which applies biolayer interferometry […]. Specifically, a protein having an Fc region and a His-tag added to the N-terminus of SEQ ID NO: 1 was immobilized at a concentration of 0.1 mg/mL using the Anti-Penta-HIS or ProteinA biosensor (ForteBio). Subsequently, the antibodies 1 to 114 made were prepared at a concentration of 500, 100, and 50 nM and reacted to acquire the dissociation constant.

Kd [pM] | Binder
< 1 | B1
< 1 | B2
< 1 | B3
< 1 | B4
< 1 | B5
< 1 | B6
< 1 | B7
< 1 | B8

biological target: T1, Ins 5 type mutant CALR protein on …; assay: cell-based or functional assay; remark: another data set of the same source

Binder | EC50 of cytotoxic activity (calcein release, T-LAK effector cells) [pM]
B9 | 56
B10 | 1260
